{"source": "paper PMC11879086", "about": "“Identification and characterization of a human MORC2 DNA binding region that is required for gene silencing” (Nucleic Acids Research, 2024)", "key": {"[1]": {"molecular_target": "T1, MORC2 aspartate mutant (Homo sapiens, UniProt Q9Y6X9 1-1032, K704D;R707D;K713D;K716D;K721D;K722D;R754D;R755D;K756D;R758D;K760D;R761D)", "T1 sequence": "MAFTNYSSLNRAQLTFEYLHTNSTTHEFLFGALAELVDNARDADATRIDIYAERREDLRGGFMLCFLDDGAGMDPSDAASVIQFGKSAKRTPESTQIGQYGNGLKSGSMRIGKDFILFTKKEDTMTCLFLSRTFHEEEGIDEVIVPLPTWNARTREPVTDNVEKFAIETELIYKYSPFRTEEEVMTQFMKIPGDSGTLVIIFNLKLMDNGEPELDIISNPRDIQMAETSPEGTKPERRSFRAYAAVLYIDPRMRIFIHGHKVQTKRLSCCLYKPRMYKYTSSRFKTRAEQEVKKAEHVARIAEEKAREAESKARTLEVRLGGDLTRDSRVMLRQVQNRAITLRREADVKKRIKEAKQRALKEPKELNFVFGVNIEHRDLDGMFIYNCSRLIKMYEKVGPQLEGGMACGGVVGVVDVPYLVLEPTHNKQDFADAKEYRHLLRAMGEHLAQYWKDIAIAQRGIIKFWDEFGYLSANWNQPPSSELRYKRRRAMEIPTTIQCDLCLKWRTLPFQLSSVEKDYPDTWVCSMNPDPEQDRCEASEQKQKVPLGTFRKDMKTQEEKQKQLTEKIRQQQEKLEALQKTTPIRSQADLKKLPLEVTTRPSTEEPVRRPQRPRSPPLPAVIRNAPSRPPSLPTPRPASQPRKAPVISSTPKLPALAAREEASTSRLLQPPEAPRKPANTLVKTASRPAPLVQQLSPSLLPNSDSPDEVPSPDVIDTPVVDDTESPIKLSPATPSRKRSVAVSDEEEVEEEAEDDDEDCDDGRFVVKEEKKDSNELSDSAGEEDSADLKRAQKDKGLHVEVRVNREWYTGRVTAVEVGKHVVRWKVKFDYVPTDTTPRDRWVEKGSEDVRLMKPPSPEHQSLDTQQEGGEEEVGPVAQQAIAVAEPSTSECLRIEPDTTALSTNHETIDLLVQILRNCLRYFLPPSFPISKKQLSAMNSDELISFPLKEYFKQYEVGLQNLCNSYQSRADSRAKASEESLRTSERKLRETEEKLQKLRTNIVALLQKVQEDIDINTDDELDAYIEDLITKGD", "experiment": "fluorescence anisotropy; apo; FA/EMSA: 50 mM NaCl, 3 mM MgCl2, 20 mM Na-HEPES pH 7.4, 1 mM TCEP, 10% glycerol, 0.025 mM ZnCl2, 50 ug/ml BSA, room temperature; 1 nM nucleic acid (FA) or 20 nM DNA (EMSA)", "conditions": "protein: recombinant; tags: tag removed by TEV; chain copies: 2; label: 5'-6-FAM; blunt"}, "[2]": {"molecular_target": "T2, MORC2 dephosphorylated (wild-type) (Homo sapiens, UniProt Q9Y6X9 1-1032)", "T2 sequence": "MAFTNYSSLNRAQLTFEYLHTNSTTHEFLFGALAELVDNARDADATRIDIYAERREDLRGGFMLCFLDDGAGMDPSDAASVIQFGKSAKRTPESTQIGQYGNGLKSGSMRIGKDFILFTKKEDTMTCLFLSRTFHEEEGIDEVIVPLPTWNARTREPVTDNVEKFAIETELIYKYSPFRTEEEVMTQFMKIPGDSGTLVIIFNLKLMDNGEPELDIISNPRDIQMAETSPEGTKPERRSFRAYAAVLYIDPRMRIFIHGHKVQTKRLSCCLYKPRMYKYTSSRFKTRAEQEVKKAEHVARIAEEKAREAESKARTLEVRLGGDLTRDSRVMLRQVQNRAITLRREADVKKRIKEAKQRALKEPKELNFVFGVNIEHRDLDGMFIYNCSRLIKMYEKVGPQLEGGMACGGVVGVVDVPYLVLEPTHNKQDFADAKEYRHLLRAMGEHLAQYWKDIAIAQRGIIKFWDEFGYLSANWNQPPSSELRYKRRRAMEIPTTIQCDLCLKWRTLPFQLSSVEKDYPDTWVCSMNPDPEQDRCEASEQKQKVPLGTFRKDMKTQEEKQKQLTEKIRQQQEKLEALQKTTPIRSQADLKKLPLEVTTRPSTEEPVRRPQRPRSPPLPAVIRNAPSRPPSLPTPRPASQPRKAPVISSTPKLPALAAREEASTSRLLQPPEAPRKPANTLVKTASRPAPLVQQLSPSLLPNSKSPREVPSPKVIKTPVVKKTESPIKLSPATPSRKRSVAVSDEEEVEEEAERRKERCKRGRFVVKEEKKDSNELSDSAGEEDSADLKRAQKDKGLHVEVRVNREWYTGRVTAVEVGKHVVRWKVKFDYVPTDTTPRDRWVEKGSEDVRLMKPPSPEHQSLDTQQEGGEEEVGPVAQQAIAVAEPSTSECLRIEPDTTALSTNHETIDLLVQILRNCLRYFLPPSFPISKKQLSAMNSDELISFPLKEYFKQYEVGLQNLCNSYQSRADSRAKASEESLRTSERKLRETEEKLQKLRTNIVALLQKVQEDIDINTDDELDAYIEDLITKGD", "experiment": "fluorescence anisotropy; apo; FA/EMSA: 50 mM NaCl, 3 mM MgCl2, 20 mM Na-HEPES pH 7.4, 1 mM TCEP, 10% glycerol, 0.025 mM ZnCl2, 50 ug/ml BSA, room temperature; 1 nM nucleic acid (FA) or 20 nM DNA (EMSA)", "conditions": "protein: recombinant; tags: tag removed by TEV; chain copies: 2; label: 5'-6-FAM; blunt"}}, "data": [{"binder": "Random 35mer dsDNA (dsDNA) DNA 1: ATAGGGTCCATCAGAATTCGGATGAACTCGGTGTG DNA 2: CACACCGAGTTCATCCGAATTCTGATGGACCCTAT", "values": [{"measurement": "Kd", "setting": "[1]", "result": "0.38 ± 0.12", "unit": "µM"}, {"measurement": "Kd", "setting": "[2]", "result": "0.017 ± 0.004", "unit": "µM"}]}]}
